We go through five molecules from paper PMC10901363 (Science Advances, 2024).

The Kd is the concentration at which binding is half-saturated. As a reminder, the Km is the concentration of substrate that gives half-maximal velocity. A word on the kcat: it is the number of substrate molecules converted per active site and unit of time at saturation.

“And” between values parts separate entries of the source, which are not always exact repeats. Identical values can stand only once. Where no end group is shown, it is not given here. [ ]: non-standard residue; d: D form. pY = N[C@@H](Cc1ccc(OP(=O)(O)O)cc1)C(=O)O

One data set concerns the target T1, PTPN21 PTP-EGFP (UniProt Q16825 872-1174).
T1 construct: also called WT PTP-EGFP; source: E. coli Rosetta (DE3), purified (as the untagged domain); not shown: His-sumo, N-terminal, cleaved; EGFP, C-terminal, kept
T1 sequence (looked up): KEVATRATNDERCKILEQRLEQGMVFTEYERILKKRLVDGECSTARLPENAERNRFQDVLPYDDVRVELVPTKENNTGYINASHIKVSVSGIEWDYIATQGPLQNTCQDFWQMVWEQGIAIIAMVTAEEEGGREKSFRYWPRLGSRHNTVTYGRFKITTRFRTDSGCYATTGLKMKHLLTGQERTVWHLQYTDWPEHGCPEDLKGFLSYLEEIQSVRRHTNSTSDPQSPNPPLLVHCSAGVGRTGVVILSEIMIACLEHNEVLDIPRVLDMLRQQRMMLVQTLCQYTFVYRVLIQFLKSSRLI
Kind of data set: MST. The settings on record: both partners purified.

The target of data set [1] is T2, mini PTPN21-EGFP (UniProt Q16825 878-1174; Q16825 878-1174).
T2 chain: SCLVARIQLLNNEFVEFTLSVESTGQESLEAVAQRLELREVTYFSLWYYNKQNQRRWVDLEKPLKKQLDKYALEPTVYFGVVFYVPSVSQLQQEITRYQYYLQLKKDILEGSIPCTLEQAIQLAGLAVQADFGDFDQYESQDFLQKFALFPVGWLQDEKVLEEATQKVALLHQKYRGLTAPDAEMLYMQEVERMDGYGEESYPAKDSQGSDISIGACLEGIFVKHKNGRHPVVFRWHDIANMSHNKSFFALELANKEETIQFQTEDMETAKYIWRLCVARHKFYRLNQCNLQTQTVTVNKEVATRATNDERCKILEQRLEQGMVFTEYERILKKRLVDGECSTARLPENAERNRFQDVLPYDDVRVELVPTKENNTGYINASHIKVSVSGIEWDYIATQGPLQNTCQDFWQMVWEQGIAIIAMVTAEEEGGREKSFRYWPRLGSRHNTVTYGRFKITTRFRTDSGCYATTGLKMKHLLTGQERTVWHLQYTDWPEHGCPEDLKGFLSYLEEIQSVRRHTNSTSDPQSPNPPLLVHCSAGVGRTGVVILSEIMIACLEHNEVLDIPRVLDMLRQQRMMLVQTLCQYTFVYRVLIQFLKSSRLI
The experiment in a line: MST; + Ins(1,3)P2.

For data set [2], the target named is T3, PTPN21 PTP C1108S-EGFP (UniProt Q16825 872-1174, C1108S).
T3 sequence: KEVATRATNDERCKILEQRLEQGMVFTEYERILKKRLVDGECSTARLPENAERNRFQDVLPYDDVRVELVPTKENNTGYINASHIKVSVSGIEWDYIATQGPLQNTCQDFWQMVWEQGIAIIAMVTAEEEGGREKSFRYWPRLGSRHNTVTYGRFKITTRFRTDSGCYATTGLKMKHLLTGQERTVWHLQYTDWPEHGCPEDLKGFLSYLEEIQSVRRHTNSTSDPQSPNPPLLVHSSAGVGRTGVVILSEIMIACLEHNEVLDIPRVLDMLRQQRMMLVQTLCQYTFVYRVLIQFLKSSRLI
The experiment in a line: MST.

The target in data set [3] is T4, PTPN21 PTP E1067D C1108S-EGFP (UniProt Q16825 872-1174, E1067D | C1108S).
T4 sequence: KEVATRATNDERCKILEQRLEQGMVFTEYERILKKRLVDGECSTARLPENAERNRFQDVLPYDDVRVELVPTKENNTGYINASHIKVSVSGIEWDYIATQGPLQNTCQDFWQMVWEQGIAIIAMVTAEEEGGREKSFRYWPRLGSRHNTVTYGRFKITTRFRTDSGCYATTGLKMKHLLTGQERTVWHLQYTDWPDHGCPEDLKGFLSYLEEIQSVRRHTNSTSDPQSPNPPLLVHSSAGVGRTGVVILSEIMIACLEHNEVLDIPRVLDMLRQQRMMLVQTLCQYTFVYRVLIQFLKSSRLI
Kind of data set: MST.

The target in data set [4] is T5, PTPN21 PTP R1114Q (UniProt Q16825 872-1174, R1114Q).
T5 sequence: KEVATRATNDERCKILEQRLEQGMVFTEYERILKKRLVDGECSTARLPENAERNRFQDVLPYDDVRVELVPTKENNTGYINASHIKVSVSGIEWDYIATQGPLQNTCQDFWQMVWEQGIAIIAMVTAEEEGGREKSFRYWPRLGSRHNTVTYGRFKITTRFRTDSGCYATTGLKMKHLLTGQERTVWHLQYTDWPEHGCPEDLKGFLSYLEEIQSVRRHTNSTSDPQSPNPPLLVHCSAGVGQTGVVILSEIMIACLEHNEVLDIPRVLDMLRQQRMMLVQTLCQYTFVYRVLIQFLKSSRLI
The experiment in a line: MST.

The target of another data set is T6, PTPN21 PTP C1108S (UniProt Q16825 872-1174, C1108S).
T6 construct: also called PTP^PTPN21 C1108S; source: E. coli Rosetta (DE3), purified (as the wild type); not shown: His-sumo, N-terminal, cleaved
T6 sequence (looked up): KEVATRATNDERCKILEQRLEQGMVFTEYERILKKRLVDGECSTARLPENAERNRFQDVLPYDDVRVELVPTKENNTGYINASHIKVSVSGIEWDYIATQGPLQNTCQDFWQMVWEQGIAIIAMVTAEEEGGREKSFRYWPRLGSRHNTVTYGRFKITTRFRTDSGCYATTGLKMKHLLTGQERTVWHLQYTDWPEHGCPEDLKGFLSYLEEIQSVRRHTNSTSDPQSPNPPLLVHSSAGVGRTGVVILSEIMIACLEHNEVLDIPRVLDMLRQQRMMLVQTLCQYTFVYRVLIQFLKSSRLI
Kind of data set: crystal structure; PTP C1108S with twofold molar excess of Src pY530 peptide, hanging drop, 4°C. The settings on record: both partners purified.

The target in data set [5] is T7, PTPN21 PTP C1108S-EGFP (UniProt Q16825 872-1174, C1108S).
T7 construct: also called PTP^PTPN21 C1108S; source: E. coli Rosetta (DE3), purified (as the wild type); not shown: His-sumo, N-terminal, cleaved; EGFP, C-terminal, kept
T7 sequence (looked up): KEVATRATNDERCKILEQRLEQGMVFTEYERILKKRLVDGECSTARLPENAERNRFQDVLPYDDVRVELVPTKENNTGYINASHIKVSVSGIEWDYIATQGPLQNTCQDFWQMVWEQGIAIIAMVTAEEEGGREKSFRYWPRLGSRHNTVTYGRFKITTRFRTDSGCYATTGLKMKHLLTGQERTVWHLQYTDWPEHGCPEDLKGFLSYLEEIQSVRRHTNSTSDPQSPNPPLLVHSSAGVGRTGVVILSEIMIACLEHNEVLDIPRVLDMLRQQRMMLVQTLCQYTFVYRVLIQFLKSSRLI
Kind of data set: MST; fluorescent PTP mutant-EGFP (80 nM) mixed with an increasing amount of Src pY530 peptide; 20 mM Hepes pH 7.0, 150 mM NaCl, 0.3 mM TCEP, 1.5 mM BSA. The following applies: both partners purified.

Data set [6] concerns the target T8, PTPN21 PTP E1067D C1108S-EGFP (UniProt Q16825 872-1174, E1067D | C1108S).
T8 construct: also called PTP^PTPN21 C1108S E1067D; source: E. coli Rosetta (DE3), purified (as the wild type); not shown: His-sumo, N-terminal, cleaved; EGFP, C-terminal, kept
T8 sequence (looked up): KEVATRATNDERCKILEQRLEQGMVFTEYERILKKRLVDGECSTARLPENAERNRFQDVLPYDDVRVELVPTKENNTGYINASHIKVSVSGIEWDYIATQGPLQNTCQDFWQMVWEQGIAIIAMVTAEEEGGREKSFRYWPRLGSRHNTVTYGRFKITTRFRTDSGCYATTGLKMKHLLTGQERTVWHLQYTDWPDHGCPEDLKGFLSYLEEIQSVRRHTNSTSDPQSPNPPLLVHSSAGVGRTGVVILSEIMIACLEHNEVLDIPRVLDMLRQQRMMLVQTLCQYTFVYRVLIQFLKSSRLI
Described as above. The following applies: both partners purified.

Data set [7] has as its target T9, PTPN21 PTP R1114Q (UniProt Q16825 872-1174, R1114Q).
T9 construct: also called PTP^PTPN21 R1114Q; source: E. coli Rosetta (DE3), purified (as the wild type)
T9 sequence (looked up): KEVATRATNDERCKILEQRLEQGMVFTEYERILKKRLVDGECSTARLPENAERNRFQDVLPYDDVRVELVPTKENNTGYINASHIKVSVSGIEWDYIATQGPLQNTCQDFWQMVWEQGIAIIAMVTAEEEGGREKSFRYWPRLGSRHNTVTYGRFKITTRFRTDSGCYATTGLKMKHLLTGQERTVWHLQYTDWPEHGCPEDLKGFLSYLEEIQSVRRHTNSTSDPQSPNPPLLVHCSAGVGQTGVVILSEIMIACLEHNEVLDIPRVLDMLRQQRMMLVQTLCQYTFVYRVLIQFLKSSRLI
The description is as above. The following applies: both partners purified.

The next data set addresses T10, PTPN21 FERM-EGFP (UniProt Q16825 21-319).
T10 chain: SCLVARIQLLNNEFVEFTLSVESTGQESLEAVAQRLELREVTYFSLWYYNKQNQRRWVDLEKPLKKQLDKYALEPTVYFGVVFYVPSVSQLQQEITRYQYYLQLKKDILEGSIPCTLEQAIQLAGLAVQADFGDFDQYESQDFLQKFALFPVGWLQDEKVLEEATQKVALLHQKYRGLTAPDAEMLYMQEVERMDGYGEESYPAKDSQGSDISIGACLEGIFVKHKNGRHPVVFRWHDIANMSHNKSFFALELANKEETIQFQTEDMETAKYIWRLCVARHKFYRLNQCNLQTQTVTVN
The experiment in a line: MST.

Substrate in data set [8]: Cc1cc(=O)oc2c(F)c(OP(=O)(O)O)c(F)cc12
Kind of data set: fluorescent phosphatase assay, Michaelis-Menten. Type of data set: biochemical, Homo sapiens. The settings on record: 50 mM Hepes pH 7.0, 150 mM NaCl, 1 mM EDTA, 2 mM DTT, RT.

Data set [9] deals with T2, mini PTPN21-EGFP. The experiment in a line: MST.

B1: HPV18 E7 CR3 domain (domain or fragment)
chain: AEPQRHTMLCMCCKCEARIKLVVESSADDLRAFQQLFLNTLSFVCPWCASQQ
notes: source: E. coli Rosetta (DE3), purified (as the PTPN21 domains); not shown: His-sumo, N-terminal, cleaved
On to B1, for which the Kd with PTPN21 PTP-EGFP was roughly 2.8 nM; with mini PTPN21-EGFP [1] it was 40.3 nM.

B2: Src pY530 peptide (peptide)
peptide: STEPQ[pY]QPGENL
notes: also called Src pY530 synthetic peptide; Peptide Src pY530; source: synthetic peptide (ChinaPeptides Co. Ltd.)
Take B2: the Kd was determined as 2930 nM with PTPN21 PTP C1108S-EGFP [2], 5.61 µM in [3] and 6.23 µM with PTPN21 PTP R1114Q [4]. Further, the binding result (in the data set with PTPN21 PTP C1108S; with PTPN21 PTP C1108S-EGFP [5]; in data set [6]; with PTPN21 PTP R1114Q [7]) was “binds” throughout.

B3: PTPN21 PTP domain (residues 872 to 1174) (domain or fragment)
chain: KEVATRATNDERCKILEQRLEQGMVFTEYERILKKRLVDGECSTARLPENAERNRFQDVLPYDDVRVELVPTKENNTGYINASHIKVSVSGIEWDYIATQGPLQNTCQDFWQMVWEQGIAIIAMVTAEEEGGREKSFRYWPRLGSRHNTVTYGRFKITTRFRTDSGCYATTGLKMKHLLTGQERTVWHLQYTDWPEHGCPEDLKGFLSYLEEIQSVRRHTNSTSDPQSPNPPLLVHCSAGVGRTGVVILSEIMIACLEHNEVLDIPRVLDMLRQQRMMLVQTLCQYTFVYRVLIQFLKSSRLI
Consider B3, for which the dissociation constant Kd with PTPN21 FERM-EGFP was 2310 nM and 3480 nM and 1610 nM. Also, in data set [8], the Km was 28.6 µM and the kcat worked out at 1.2 s⁻¹.

B4: PTPN21 PTP domain (PTP^PTPN21) (Homo sapiens; E1067D) (protein)
chain: KEVATRATNDERCKILEQRLEQGMVFTEYERILKKRLVDGECSTARLPENAERNRFQDVLPYDDVRVELVPTKENNTGYINASHIKVSVSGIEWDYIATQGPLQNTCQDFWQMVWEQGIAIIAMVTAEEEGGREKSFRYWPRLGSRHNTVTYGRFKITTRFRTDSGCYATTGLKMKHLLTGQERTVWHLQYTDWPDHGCPEDLKGFLSYLEEIQSVRRHTNSTSDPQSPNPPLLVHCSAGVGRTGVVILSEIMIACLEHNEVLDIPRVLDMLRQQRMMLVQTLCQYTFVYRVLIQFLKSSRLI
notes: PTP (phosphatase) domain, residues 872 to 1174; E. coli Rosetta (DE3), His-sumo tag removed
On to B4, for which, in [8] (0.2 nM enzyme), the Km amounted to 250.93 ± 15.69 µM and the kcat came out at 38.32 ± 4.66 s⁻¹.

B5: HPV18 E7 protein, full length (natural protein)
chain: MHGPKATLQDIVLHLEPQNEIPVDLLCHEQLSDSEEENDEIDGVNHQHLPARRAEPQRHTMLCMCCKCEARIKLVVESSADDLRAFQQLFLNTLSFVCPWCASQQ
Regarding B5, the Kd amounted to 215 nM with mini PTPN21-EGFP [9] and 352 nM in the data set with mini PTPN21-EGFP [1].
